In patent US20090035818A1:
pKd: −log10 of the molar value.

Columns and labels:
[1] = target: asialotransferrin (human) (UniProt P02787); experiment: SPR, asialotransferrin on CM5 chip, lectin as analyte
[2] = target: chicken egg yolk antibody (chicken IgY antibody) (chicken); experiment: SPR (Biacore 2000), chicken IgY on CM5 chip, lectin as analyte

Sequence of asialotransferrin (human) (P02787 20-698 limits assumed): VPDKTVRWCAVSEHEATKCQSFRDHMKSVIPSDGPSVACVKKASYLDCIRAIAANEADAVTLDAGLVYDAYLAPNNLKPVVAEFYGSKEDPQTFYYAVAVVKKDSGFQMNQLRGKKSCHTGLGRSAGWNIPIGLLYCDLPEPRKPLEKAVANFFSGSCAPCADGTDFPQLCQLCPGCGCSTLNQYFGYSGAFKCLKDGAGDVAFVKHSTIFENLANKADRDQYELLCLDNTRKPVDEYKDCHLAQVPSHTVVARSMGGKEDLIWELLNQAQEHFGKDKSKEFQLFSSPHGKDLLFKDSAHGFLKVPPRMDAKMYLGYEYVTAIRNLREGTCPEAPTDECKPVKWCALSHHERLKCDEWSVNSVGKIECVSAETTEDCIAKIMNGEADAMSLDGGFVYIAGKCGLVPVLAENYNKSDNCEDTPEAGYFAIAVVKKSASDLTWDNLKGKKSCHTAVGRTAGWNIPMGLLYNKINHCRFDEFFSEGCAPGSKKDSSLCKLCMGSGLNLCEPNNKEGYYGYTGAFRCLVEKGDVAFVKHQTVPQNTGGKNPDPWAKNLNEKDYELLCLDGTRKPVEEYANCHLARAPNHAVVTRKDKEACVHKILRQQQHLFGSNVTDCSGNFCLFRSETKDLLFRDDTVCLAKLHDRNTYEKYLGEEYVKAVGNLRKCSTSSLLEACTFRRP

Ka [1]	Ka [2]	pKd [2]	koff [2]	kon [2]	Substance
1e+08 M⁻¹	6.57e+07 M⁻¹	7.82	0.00172 s⁻¹	113000 M⁻¹ s⁻¹	Carpopeltis flabellata-derived lectin Carnin
	2.88e+07 M⁻¹	7.46	0.00564 s⁻¹	162000 M⁻¹ s⁻¹	Solieria robusta-derived lectin Solnin B
	7.1e+07 M⁻¹	7.85	0.000298 s⁻¹	21200 M⁻¹ s⁻¹	Hypnea japonica-derived lectin Hypnin A-1

Substance	Ka [1]	Ka [2]	pKd [2]	koff [2]	kon [2]
Canavallia ensiformis-derived lectin Con A (from UniProt P02866 30-281)		1.87e+07 M⁻¹	7.27	2.49e-05 s⁻¹	467 M⁻¹ s⁻¹
